Assay results reported in IntAct's records for PubMed 35512704.

B1: Speckle-type POZ protein (Homo sapiens), O43791 (parent)
chain: MSRVPSPPPPAEMSSGPVAESWCYTQIKVVKFSYMWTINNFSFCREEMGEVIKSSTFSSGANDKLKWCLRVNPKGLDEESKDYLSLYLLLVSCPKSEVRAKFKFSILNAKGEETKAMESQRAYRFVQGKDWGFKKFIRRDFLLDEANGLLPDDKLTLFCEVSVVQDSVNISGQNTMNMVKVPECRLADELGGLWENSRFTDCCLCVAGQEFQAHKAILAARSPVFSAMFEHEMEESKKNRVEINDVEPEVFKEMMCFIYTGKAPNLDKMADDLLAAADKYALERLKVMCEDALCSNLSVENAAEILILADLHSADQLKTQAVDFINYHASDVLETSGWKSMVVSHPHLVAEAYRSLASAQCPFLGPPRKRLKQS
partner: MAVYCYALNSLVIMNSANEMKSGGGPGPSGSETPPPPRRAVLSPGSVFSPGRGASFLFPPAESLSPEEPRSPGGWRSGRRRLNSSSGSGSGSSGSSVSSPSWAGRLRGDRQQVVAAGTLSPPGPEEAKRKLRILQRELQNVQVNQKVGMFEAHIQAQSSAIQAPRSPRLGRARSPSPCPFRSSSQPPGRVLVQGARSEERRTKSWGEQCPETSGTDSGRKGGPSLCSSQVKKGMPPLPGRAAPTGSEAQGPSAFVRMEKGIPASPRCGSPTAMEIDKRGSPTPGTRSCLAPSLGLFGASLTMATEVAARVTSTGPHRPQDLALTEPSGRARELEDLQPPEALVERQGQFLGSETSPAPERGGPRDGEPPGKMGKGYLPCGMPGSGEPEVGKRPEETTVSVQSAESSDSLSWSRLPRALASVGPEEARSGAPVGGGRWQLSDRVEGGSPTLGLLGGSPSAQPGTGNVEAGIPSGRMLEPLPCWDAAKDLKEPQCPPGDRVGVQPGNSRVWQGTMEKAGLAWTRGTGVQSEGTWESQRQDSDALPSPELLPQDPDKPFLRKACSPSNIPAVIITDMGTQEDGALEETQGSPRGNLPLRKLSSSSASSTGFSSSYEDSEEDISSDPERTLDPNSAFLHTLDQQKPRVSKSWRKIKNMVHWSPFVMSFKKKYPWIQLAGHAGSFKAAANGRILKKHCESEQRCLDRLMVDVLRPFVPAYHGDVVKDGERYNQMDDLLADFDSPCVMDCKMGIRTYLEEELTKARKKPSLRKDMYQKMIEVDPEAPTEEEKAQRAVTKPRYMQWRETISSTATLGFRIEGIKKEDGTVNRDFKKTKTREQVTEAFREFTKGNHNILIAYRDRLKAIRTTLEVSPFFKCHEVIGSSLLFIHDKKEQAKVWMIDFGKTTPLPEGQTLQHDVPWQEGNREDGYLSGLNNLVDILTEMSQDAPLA
B2: Speckle-type POZ protein (Homo sapiens), O43791 (parent)
chain: B1 chain
partner: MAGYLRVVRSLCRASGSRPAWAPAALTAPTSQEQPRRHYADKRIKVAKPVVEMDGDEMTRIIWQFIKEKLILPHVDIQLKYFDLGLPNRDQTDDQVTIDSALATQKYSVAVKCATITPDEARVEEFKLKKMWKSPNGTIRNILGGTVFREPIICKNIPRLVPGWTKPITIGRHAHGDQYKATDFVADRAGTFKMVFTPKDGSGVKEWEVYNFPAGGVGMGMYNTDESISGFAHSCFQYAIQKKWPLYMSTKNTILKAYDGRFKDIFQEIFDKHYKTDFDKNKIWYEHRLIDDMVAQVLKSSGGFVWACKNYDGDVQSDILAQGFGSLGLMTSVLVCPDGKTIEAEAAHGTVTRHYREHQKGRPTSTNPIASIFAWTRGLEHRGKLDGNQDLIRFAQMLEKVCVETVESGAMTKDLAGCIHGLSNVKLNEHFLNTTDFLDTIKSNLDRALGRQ
B3: Speckle-type POZ protein (Homo sapiens), O43791 (parent)
chain: B1 chain
partner: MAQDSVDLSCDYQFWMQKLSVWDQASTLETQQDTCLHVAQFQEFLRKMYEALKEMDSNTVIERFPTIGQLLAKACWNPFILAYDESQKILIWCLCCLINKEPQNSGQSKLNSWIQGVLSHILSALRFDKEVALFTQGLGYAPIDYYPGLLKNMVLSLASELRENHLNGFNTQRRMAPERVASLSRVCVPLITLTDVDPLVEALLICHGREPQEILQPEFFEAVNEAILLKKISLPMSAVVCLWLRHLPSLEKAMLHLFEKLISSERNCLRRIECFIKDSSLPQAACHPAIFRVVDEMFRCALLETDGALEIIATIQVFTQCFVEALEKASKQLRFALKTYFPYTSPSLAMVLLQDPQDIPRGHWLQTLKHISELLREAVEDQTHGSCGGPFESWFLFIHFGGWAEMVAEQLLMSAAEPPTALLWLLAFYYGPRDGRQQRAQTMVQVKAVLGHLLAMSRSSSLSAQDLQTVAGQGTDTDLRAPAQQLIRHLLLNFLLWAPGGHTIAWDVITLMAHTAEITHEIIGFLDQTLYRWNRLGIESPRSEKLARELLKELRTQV
B4: Speckle-type POZ protein (Homo sapiens), O43791 (parent)
chain: B1 chain
partner: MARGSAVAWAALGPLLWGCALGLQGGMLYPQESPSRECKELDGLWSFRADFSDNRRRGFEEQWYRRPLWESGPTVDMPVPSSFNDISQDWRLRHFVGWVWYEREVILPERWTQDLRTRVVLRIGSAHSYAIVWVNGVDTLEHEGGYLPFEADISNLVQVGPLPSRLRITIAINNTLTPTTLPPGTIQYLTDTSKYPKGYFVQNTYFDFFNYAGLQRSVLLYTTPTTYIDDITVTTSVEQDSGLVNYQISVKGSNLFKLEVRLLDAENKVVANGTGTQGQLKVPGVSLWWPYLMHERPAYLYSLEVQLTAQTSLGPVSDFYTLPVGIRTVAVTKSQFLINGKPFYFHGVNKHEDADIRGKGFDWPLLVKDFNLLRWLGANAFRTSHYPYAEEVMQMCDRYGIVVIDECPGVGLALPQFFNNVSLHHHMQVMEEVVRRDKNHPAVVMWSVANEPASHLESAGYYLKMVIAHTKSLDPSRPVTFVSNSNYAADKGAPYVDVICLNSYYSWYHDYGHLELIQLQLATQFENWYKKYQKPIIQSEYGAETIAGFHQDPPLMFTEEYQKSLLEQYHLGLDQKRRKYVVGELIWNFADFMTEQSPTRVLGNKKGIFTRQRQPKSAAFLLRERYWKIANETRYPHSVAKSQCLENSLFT

Variants of: B1
Conditions: with ip3kb_human ITPKB

| Variant | effect of a mutation on the interaction |
| --- | --- |
| F133L | with no effect |

Variants of: B2
Conditions: with idhp_human IDH2, P48735

| Variant | effect of a mutation on the interaction |
| --- | --- |
| F133L | with no effect |

Variants of: B2
Conditions: with idhp_human IDH2, P48735
Remark: another data set of the same source

| Variant | effect of a mutation on the interaction |
| --- | --- |
| F133V | with no effect |

Variants of: B2
Conditions: with idhp_human IDH2, P48735
Remark: another data set of the same source

| Variant | effect of a mutation on the interaction |
| --- | --- |
| F102C | with no effect |

Variants of: B2
Conditions: with idhp_human IDH2, P48735
Remark: another data set of the same source

| Variant | effect of a mutation on the interaction |
| --- | --- |
| Y87C | with no effect |

Variants of: B3
Conditions: with fancc_human FANCC

| Variant | effect of a mutation on the interaction |
| --- | --- |
| F102C | with no effect |

Variants of: B3
Conditions: with fancc_human FANCC
Remark: another data set of the same source

| Variant | effect of a mutation on the interaction |
| --- | --- |
| Y87C | with no effect |

Variants of: B3
Conditions: with fancc_human FANCC
Remark: another data set of the same source

| Variant | effect of a mutation on the interaction |
| --- | --- |
| F133V | with no effect |

Variants of: B3
Conditions: with fancc_human FANCC
Remark: another data set of the same source

| Variant | effect of a mutation on the interaction |
| --- | --- |
| F133L | with no effect |

Variants of: B4
Conditions: with bglr_human GUSB

| Variant | effect of a mutation on the interaction |
| --- | --- |
| F133L | with no effect |

Variants of: B4
Conditions: with bglr_human GUSB
Remark: another data set of the same source

| Variant | effect of a mutation on the interaction |
| --- | --- |
| F133V | with no effect |

Variants of: B4
Conditions: with bglr_human GUSB
Remark: another data set of the same source

| Variant | effect of a mutation on the interaction |
| --- | --- |
| Y87C | with no effect |
